The source of these data is US20230120736A1, “ANTI-CD98 ANTIBODIES AND ANTIBODY DRUG CONJUGATES” (AbbVie Inc., priority 2016, published 2023).

One series deals with T1, human CD98 (Homo sapiens, UniProt P08195).
T1 sequence (P08195 1-630 isoform P08195-1): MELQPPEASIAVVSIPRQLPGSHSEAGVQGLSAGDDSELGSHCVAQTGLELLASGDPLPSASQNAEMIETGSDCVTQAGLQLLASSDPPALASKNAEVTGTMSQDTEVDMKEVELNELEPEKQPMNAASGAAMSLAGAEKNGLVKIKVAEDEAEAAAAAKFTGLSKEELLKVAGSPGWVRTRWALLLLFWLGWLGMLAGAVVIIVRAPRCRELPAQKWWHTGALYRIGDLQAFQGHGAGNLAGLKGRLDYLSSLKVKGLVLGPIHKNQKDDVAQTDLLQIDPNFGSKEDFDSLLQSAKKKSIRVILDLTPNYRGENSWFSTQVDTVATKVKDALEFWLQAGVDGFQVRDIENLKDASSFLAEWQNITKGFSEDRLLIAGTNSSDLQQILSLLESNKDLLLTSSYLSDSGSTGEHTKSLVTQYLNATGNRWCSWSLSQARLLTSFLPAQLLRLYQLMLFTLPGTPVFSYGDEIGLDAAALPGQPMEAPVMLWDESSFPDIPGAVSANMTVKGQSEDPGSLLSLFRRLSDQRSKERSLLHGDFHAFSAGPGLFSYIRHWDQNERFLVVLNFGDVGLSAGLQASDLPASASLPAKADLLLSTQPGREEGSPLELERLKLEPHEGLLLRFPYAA
The series is described as follows: Binding of humanized antibodies to human CD98. Conditions: humanized variants of chAb3 and chAb15.

Series [1] deals with cynomolgus monkey CD98 ECD. The series is described as follows: Biacore surface plasmon resonance binding kinetics (anti-Fc capture). Particulars: cyCD98 ECD. As to the method:
(§1) The binding kinetics of these purified mouse and rat monoclonal anti-CD98 antibodies for purified recombinant CD98 protein (extracellular domain, ECD) were determined by surface plasmon resonance-based measurements made on Biacore T100/T200 instruments (GE Healthcare, Piscataway, N.J.) at 25° C. using an anti-Fc capture assay approach. Binding kinetic measurements were made in the assay buffer HBS-EP+: 10 mM Hepes, pH 7.4, 150 mM NaCl, 3 mM EDTA, 0.05% Tween 20). For example, approximately 8000 RU of anti-Fc (species specific) polyclonal antibody (Thermo Fisher Scientific Inc., Rockford, Ill.) diluted in 10 mM sodium acetate (pH 4.5) was directly immobilized across a CM5 research grade biosensor chip using a standard amine coupling kit according to manufacturer's instructions and procedures at 25 μg/ml. Unreacted moieties on the biosensor surface were blocked with ethanolamine. The test antibody to be captured as a ligand was diluted in running buffer to ˜0.5 μg/mL and injected over anti-Fc surface at a flow rate of 10 μL/min. CD98 binding and dissociation were observed under a continuous flow rate of 80 μL/min. Human and cynomolgus monkey CD98 ECDs, both with a C-terminal His-tag, are used for this study (Table 3). After each cycle the anti-Fc capture surface was regenerated using 10 mM Glycine-HCl, pH 1.5. During the assay, all measurements were referenced against the capture surface alone (i.e., with no captured test antibody) and buffer-only injections (no antigen) were used for double referencing. For kinetic analysis, rate equations derived from the 1:1 Langmuir binding model were fitted simultaneously, globally and with mass transfer term included to multiple referenced antigen binding curves using Biacore T100/T200 Evaluation software.
(§2) The in vitro binding activities of the recombinant anti-CD98 chimeric mAbs were measured against both recombinant CD98 extracellular domain proteins (ECDs) and CD98-expressing cells. Briefly, binding kinetics of anti-CD98 chimera mAbs for human and cynomolgus CD98 ECDs were determined by surface plasmon resonance-based measurements as described in Example 4. Table 10 reported the association and dissociation rate constants for CD98 binding, ka (M^−1 s^−1) and kd (s^−1), and the equilibrium dissociation constant KD (M) of the interaction between antibodies and the target antigen. Binding of anti-CD98 chimera mAbs for CD98 on cell surface was evaluated by flow cytometry against CHO-K1 cell line stably transfected to express human CD98 and 3T12 cell line stably transfected to express cynomolgus monkey CD98.
(§3) The binding kinetics of the recombinant anti-CD98 chimeric antibodies for purified recombinant CD98 protein (extracellular domain, ECD) were determined by surface plasmon resonance-based measurements, as described in the Example 4.
For orientation: SPR reads the build-up and loss of mass on a sensor chip optically.

For a further series, the target named is T2, human CD98 ECD (Homo sapiens, UniProt P08195).
T2 construct: Human CD98 ECD with C-terminal His-tag
T2 sequence (P08195 with tags, fused parts or gaps): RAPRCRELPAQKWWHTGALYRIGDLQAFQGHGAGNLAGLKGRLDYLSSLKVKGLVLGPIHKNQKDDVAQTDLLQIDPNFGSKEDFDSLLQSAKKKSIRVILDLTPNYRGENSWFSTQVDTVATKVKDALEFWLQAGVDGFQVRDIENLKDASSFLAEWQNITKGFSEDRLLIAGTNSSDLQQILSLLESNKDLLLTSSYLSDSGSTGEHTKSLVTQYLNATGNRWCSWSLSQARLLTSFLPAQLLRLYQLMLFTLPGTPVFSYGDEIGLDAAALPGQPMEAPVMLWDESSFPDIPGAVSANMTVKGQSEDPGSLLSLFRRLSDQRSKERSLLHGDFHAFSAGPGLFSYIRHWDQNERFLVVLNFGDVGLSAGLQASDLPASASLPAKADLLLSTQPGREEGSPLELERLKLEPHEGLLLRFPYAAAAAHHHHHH
The description is as above. Particulars: huCD98 ECD. How it is done:
as §1, §2, §3

Series [2] is described as follows: Conjugation of anti-CD98 mAbs with Bcl-xL inhibitor synthons (precipitation, DAR, recovery, aggregation). Conditions: mAb conjugated with Bcl-xL inhibitor synthon CZ, Method A. As to the method: Method A. A solution of BOND-BREAKER tris(2-carboxyethyl)phosphine (TCEP) solution (10 mM, 0.017 mL) was added to a solution of antibody (10 mg/mL, […]) preheated to 37° C. The reaction mixture was kept at 37° C. for 1 hour. The solution of reduced antibody was added to a solution of synthon (3.3 mM, 0.160 mL in DMSO) and gently mixed for 30 minutes. The reaction solution was loaded onto a desalting column (PD10, washed with DPBS 3x before use), followed by DPBS (1.6 mL) and eluted with additional DPBS (3 mL). The purified ADC solution was filtered through a 0.2 micron, low protein-binding 13 mm syringe-filter and stored at 4° C.
Method E. A solution of BOND-BREAKER tris(2-carboxyethyl)phosphine (TCEP) solution (10 mM, 0.017 mL) was added to the solution of antibody (10 mg/mL, 1 mL) at room temperature. The reaction mixture was heated to 37° C. for 75 minutes. The solution of reduced antibody cooled to room temperature and was added to a solution of synthon (10 mM, 0.040 mL in DMSO) followed by addition of boric buffer (0.1 mL, 1M, pH 8). The reaction solution was let to stand for 3 days at room temperature, loaded onto a desalting column (PD10, washed with DPBS 3×5 mL before use), followed by DPBS (1.6 mL) and eluted with additional DPBS (3 mL). The purified ADC solution was filtered through a 0.2 micron, low protein-binding 13 mm syringe-filter and stored at 4° C.

Substitutions are numbered along the chain they refer to.

cynomolgus monkey CD98 ECD, sequence (as listed by the source): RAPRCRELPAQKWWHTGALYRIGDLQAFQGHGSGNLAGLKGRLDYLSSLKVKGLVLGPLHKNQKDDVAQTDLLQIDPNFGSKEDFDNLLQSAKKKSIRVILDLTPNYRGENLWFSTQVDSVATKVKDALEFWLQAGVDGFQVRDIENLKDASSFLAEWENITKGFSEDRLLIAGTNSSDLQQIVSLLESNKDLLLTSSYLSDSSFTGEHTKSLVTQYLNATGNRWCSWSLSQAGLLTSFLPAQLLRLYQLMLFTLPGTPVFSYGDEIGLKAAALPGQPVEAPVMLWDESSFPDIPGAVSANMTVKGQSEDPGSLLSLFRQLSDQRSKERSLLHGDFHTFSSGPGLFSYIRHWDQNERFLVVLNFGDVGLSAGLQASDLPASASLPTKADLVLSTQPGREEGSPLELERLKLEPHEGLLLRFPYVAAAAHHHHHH

B1: huAb15v1 (antibody, V domains shown)
VH: EVQLVESGGGVVQPGRSLRLSCAASGFTFSDYTMAWVRQAPGKGLEWVATIIYSGRGTYYRDAVKGRFTISRDNSKSTLYLQMNSLRAEDTAVYYCARQSDHTYYYWGYFDYWGQGTMVTVSS
VL: DIVMTQSPDSLAVSLGERATINCKSSQSLLFSGNQKNYLAWYQQKPGQSPKLLIYWASTRQSGVPDRFSGSGSGTDFTLTIRSLQAEDVAIYYCQQYYDVPYTFGQGTKLEIK
For the molecule B1, the “binding to human CD98” value with human CD98 was “maintained binding”. Moreover, in series [1], the ka worked out at 26000 M⁻¹ s⁻¹ and the kd was 2.6e-05 s⁻¹. In addition, in the series with human CD98 ECD, the ka stood at 53000 M⁻¹ s⁻¹ and the kd turned out to be 2.3e-05 s⁻¹. Moreover, the “Key observation for ADC solution during and after conjugation” value (from here on “Key observation”) in series [2] is listed as “Precipitated during conjugation; inefficient conjugation”.

B2: huAb15v7 (antibody, V domains shown)
VH: B1 VH with S54D, G55A, H102D
VL: B1 VL with D99G, V100S
B2: the “binding to human CD98” value with human CD98 is given as “maintained binding”. Further, in series [1], the ka was found to be 14000 M⁻¹ s⁻¹ and the kd amounted to 0.00043 s⁻¹. Also, in the series with human CD98 ECD, the ka came to 35000 M⁻¹ s⁻¹ and the kd was determined as 0.00021 s⁻¹. In series [2], the “DAR by MS” value was determined as 2.2; the “Key observation” value is “Precipitated during conjugation; inefficient conjugation”.

B3: huAb15v4 (antibody, V domains shown)
VH: B1 VH with S54T, H102D
VL: B1 VL
Take B3: the “binding to human CD98” value with human CD98 is listed as “maintained binding”. In series [1], this molecule came in with a ka of 20000 M⁻¹ s⁻¹ and a kd of 5e-05 s⁻¹. In the series with human CD98 ECD, this molecule displayed a ka of 35000 M⁻¹ s⁻¹ and a kd of 2.8e-05 s⁻¹. In addition, in series [2], the “DAR by MS” value was 1.9; the “Key observation” value is given as “Precipitated during conjugation; inefficient conjugation”.

B4: huAb15v6 (antibody, V domains shown)
VH: B1 VH with S54D, G55A, H102D
VL: B1 VL with D99S, V100S
Consider B4, for which the “binding to human CD98” value with human CD98 was “maintained binding”. For the same molecule, in series [1], the ka amounted to 14000 M⁻¹ s⁻¹ and the kd came to 0.00049 s⁻¹. Further, in the series with human CD98 ECD, the ka came to 38000 M⁻¹ s⁻¹ and the kd is 0.00026 s⁻¹. Further, in series [2], the “DAR by MS” value is 2.0; the “Key observation” value is “Precipitated during conjugation; inefficient conjugation”.

B5: huAb15v2 (antibody, V domains shown)
VH: B1 VH with H102D
VL: B1 VL
As to B5, the “binding to human CD98” value in the series with human CD98 is reported as “maintained binding”. In series [1], this molecule came in with a ka of 21000 M⁻¹ s⁻¹ and a kd of 4.8e-05 s⁻¹. In the series with human CD98 ECD, this molecule returned a ka of 42000 M⁻¹ s⁻¹ and a kd of 4.6e-05 s⁻¹. In addition, in series [2], the “DAR by MS” value stood at 2.1; the “Key observation” value is listed as “Precipitated during conjugation; inefficient conjugation”.

B6: huAb15v5 (antibody, V domains shown)
VH: B1 VH with S54T, H102D
VL: B1 VL with D99S, V100S
Consider B6, for which the “binding to human CD98” value in the series with human CD98 is “maintained binding”. In series [1], this molecule registered a ka of 17000 M⁻¹ s⁻¹ and a kd of 0.00018 s⁻¹. Besides, in the series with human CD98 ECD, the ka stood at 41000 M⁻¹ s⁻¹ and the kd stood at 0.00013 s⁻¹. Moreover, in series [2], the “DAR by MS” value is 1.0; the “Key observation” value is on record as “Precipitated during conjugation; inefficient conjugation”.

B7: huAb15v3 (antibody, V domains shown)
VH: B1 VH with H102D
VL: B1 VL with D99G, V100S
Consider B7, for which the “binding to human CD98” value in the series with human CD98 was “maintained binding”. In series [1], the ka stood at 18000 M⁻¹ s⁻¹ and the kd turned out to be 0.00014 s⁻¹. In the series with human CD98 ECD, this molecule had a ka of 44000 M⁻¹ s⁻¹ and a kd of 8.5e-05 s⁻¹. Further, in series [2], the “DAR by MS” value turned out to be 1.2; the “Key observation” value was “Precipitated during conjugation; inefficient conjugation”.
